Assay results taken from patent publication EP4538286A1 (Adlai Nortye Biopharma Co., Ltd., dated 2025).

T1: human CTLA4 protein (human, UniProt P16410 37-162, limits assumed)
T1 construct: bought protein coated on the ELISA plate; also called human CTLA4 antigen
T1 sequence (looked up): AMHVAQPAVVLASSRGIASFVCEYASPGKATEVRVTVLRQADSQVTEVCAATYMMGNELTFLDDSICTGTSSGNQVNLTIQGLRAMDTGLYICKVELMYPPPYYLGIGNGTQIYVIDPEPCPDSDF


Tests used:
[1] = molecular target: T2, human CD28 protein (human, UniProt P10747 19-152); assay: ELISA, plate-coated human CD28
T2 construct: bought protein coated on the ELISA plate; also called human CD28 antigen
T2 sequence (P10747 19-152 limits assumed): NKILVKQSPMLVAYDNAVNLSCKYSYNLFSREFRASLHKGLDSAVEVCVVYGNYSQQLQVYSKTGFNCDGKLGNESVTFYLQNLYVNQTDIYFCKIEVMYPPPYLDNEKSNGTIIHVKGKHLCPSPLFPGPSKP

[2] = molecular target: T1, human CTLA4 protein; assay: ELISA, plate-coated human CTLA4

Binder | binding result [1] | binding result [2]
Abs-247 (other, the paragraph that names the antibody is followed; also called CD80 IgV mutant M47A/I69Y/A71E/V83L-sugemalimab fusion) heavy: VIHVTKEVKEVATLSCGHNVSVEELAQTRIYWQKEKKMVLTMMSGDANIWPEYKNRTIFDITNNLSIVYLELRPSDEGTYECLVLKYEKDAFKREHLAEVTLSVKADGGGGSGGGGSGGGGSGGGGSGEVQLLESGGGLVQPGGSLRLSCAASGFTFSSYAMSWVRQAPGKGLEWVSGISGSGGFTYYADSVKGRFTISRDNSKNTLYLQMNSLRAEDTAVYYCAKPPRGYNYGPFDYWGQGTLVTVSSASTKGPSVFPLAPCSRSTSESTAALGCLVKDYFPEPVTVSWNSGALTSGVHTFPAVLQSSGLYSLSSVVTVPSSSLGTKTYTCNVDHKPSNTKVDKRVESKYGPPCPPCPAPEFLGGPSVFLFPPKPKDTLMISRTPEVTCVVVDVSQEDPEVQFNWYVDGVEVHNAKTKPREEQFNSTYRVVSVLAVLHQDWLNGKEYKCKVSNKGLPSSIEKTISKAKGQPREPQVYTLPPSQEEMTKNQVSLTCLVKGFYPSDIAVAWESNGQPENNYKTTPPVLDSDGSFFLYSRLTVDKSRWQEGNVFSCSVMHEALHAHYTQKSLSLSLGK light: SYVLTQPPSVSVAPGQTARITCGGNNIGSKSVHWYQQKPGQAPVLVVYDDSDRPSGIPERFSGSNSGNTATLTISRVEAGDEADYYCQVWDSSSDHVVFGGGTKLTVLGQPKAAPSVTLFPPSSEELQANKATLVCLISDFYPGAVTVAWKADSSPVKAGVETTTPSKQSNNKYAASSYLSLTPEQWKSHRSYSCQVTHEGSTVEKTVAPTECS | no binding | no binding
Abs-253 (other, the paragraph that names the antibody is followed; also called CD80 IgV mutant I69Y/A71E-sugemalimab fusion) heavy: VIHVTKEVKEVATLSCGHNVSVEELAQTRIYWQKEKKMVLTMMSGDMNIWPEYKNRTIFDITNNLSIVYLELRPSDEGTYECVVLKYEKDAFKREHLAEVTLSVKADGGGGSGGGGSGGGGSGGGGSGEVQLLESGGGLVQPGGSLRLSCAASGFTFSSYAMSWVRQAPGKGLEWVSGISGSGGFTYYADSVKGRFTISRDNSKNTLYLQMNSLRAEDTAVYYCAKPPRGYNYGPFDYWGQGTLVTVSSASTKGPSVFPLAPCSRSTSESTAALGCLVKDYFPEPVTVSWNSGALTSGVHTFPAVLQSSGLYSLSSVVTVPSSSLGTKTYTCNVDHKPSNTKVDKRVESKYGPPCPPCPAPEFLGGPSVFLFPPKPKDTLMISRTPEVTCVVVDVSQEDPEVQFNWYVDGVEVHNAKTKPREEQFNSTYRVVSVLAVLHQDWLNGKEYKCKVSNKGLPSSIEKTISKAKGQPREPQVYTLPPSQEEMTKNQVSLTCLVKGFYPSDIAVAWESNGQPENNYKTTPPVLDSDGSFFLYSRLTVDKSRWQEGNVFSCSVMHEALHAHYTQKSLSLSLGK light: SYVLTQPPSVSVAPGQTARITCGGNNIGSKSVHWYQQKPGQAPVLVVYDDSDRPSGIPERFSGSNSGNTATLTISRVEAGDEADYYCQVWDSSSDHVVFGGGTKLTVLGQPKAAPSVTLFPPSSEELQANKATLVCLISDFYPGAVTVAWKADSSPVKAGVETTTPSKQSNNKYAASSYLSLTPEQWKSHRSYSCQVTHEGSTVEKTVAPTECS | no binding | no binding
Abs-252 (other, the paragraph that names the antibody is followed; also called CD80 IgV mutant I69W/A71E/V83L-sugemalimab fusion) heavy: VIHVTKEVKEVATLSCGHNVSVEELAQTRIYWQKEKKMVLTMMSGDMNIWPEYKNRTIFDITNNLSIVWLELRPSDEGTYECLVLKYEKDAFKREHLAEVTLSVKADGGGGSGGGGSGGGGSGGGGSGEVQLLESGGGLVQPGGSLRLSCAASGFTFSSYAMSWVRQAPGKGLEWVSGISGSGGFTYYADSVKGRFTISRDNSKNTLYLQMNSLRAEDTAVYYCAKPPRGYNYGPFDYWGQGTLVTVSSASTKGPSVFPLAPCSRSTSESTAALGCLVKDYFPEPVTVSWNSGALTSGVHTFPAVLQSSGLYSLSSVVTVPSSSLGTKTYTCNVDHKPSNTKVDKRVESKYGPPCPPCPAPEFLGGPSVFLFPPKPKDTLMISRTPEVTCVVVDVSQEDPEVQFNWYVDGVEVHNAKTKPREEQFNSTYRVVSVLAVLHQDWLNGKEYKCKVSNKGLPSSIEKTISKAKGQPREPQVYTLPPSQEEMTKNQVSLTCLVKGFYPSDIAVAWESNGQPENNYKTTPPVLDSDGSFFLYSRLTVDKSRWQEGNVFSCSVMHEALHAHYTQKSLSLSLGK light: SYVLTQPPSVSVAPGQTARITCGGNNIGSKSVHWYQQKPGQAPVLVVYDDSDRPSGIPERFSGSNSGNTATLTISRVEAGDEADYYCQVWDSSSDHVVFGGGTKLTVLGQPKAAPSVTLFPPSSEELQANKATLVCLISDFYPGAVTVAWKADSSPVKAGVETTTPSKQSNNKYAASSYLSLTPEQWKSHRSYSCQVTHEGSTVEKTVAPTECS | no binding | no binding
Abs-251 (other, the paragraph that names the antibody is followed; also called CD80 IgV mutant I69Y/A71E/V83L-sugemalimab fusion) heavy: VIHVTKEVKEVATLSCGHNVSVEELAQTRIYWQKEKKMVLTMMSGDMNIWPEYKNRTIFDITNNLSIVYLELRPSDEGTYECLVLKYEKDAFKREHLAEVTLSVKADGGGGSGGGGSGGGGSGGGGSGEVQLLESGGGLVQPGGSLRLSCAASGFTFSSYAMSWVRQAPGKGLEWVSGISGSGGFTYYADSVKGRFTISRDNSKNTLYLQMNSLRAEDTAVYYCAKPPRGYNYGPFDYWGQGTLVTVSSASTKGPSVFPLAPCSRSTSESTAALGCLVKDYFPEPVTVSWNSGALTSGVHTFPAVLQSSGLYSLSSVVTVPSSSLGTKTYTCNVDHKPSNTKVDKRVESKYGPPCPPCPAPEFLGGPSVFLFPPKPKDTLMISRTPEVTCVVVDVSQEDPEVQFNWYVDGVEVHNAKTKPREEQFNSTYRVVSVLAVLHQDWLNGKEYKCKVSNKGLPSSIEKTISKAKGQPREPQVYTLPPSQEEMTKNQVSLTCLVKGFYPSDIAVAWESNGQPENNYKTTPPVLDSDGSFFLYSRLTVDKSRWQEGNVFSCSVMHEALHAHYTQKSLSLSLGK light: SYVLTQPPSVSVAPGQTARITCGGNNIGSKSVHWYQQKPGQAPVLVVYDDSDRPSGIPERFSGSNSGNTATLTISRVEAGDEADYYCQVWDSSSDHVVFGGGTKLTVLGQPKAAPSVTLFPPSSEELQANKATLVCLISDFYPGAVTVAWKADSSPVKAGVETTTPSKQSNNKYAASSYLSLTPEQWKSHRSYSCQVTHEGSTVEKTVAPTECS | no binding | no binding
Abs-248 (other, the paragraph that names the antibody is followed; also called CD80 IgV mutant M47A/I69W/A71E/V83L-sugemalimab fusion) heavy: VIHVTKEVKEVATLSCGHNVSVEELAQTRIYWQKEKKMVLTMMSGDANIWPEYKNRTIFDITNNLSIVWLELRPSDEGTYECLVLKYEKDAFKREHLAEVTLSVKADGGGGSGGGGSGGGGSGGGGSGEVQLLESGGGLVQPGGSLRLSCAASGFTFSSYAMSWVRQAPGKGLEWVSGISGSGGFTYYADSVKGRFTISRDNSKNTLYLQMNSLRAEDTAVYYCAKPPRGYNYGPFDYWGQGTLVTVSSASTKGPSVFPLAPCSRSTSESTAALGCLVKDYFPEPVTVSWNSGALTSGVHTFPAVLQSSGLYSLSSVVTVPSSSLGTKTYTCNVDHKPSNTKVDKRVESKYGPPCPPCPAPEFLGGPSVFLFPPKPKDTLMISRTPEVTCVVVDVSQEDPEVQFNWYVDGVEVHNAKTKPREEQFNSTYRVVSVLAVLHQDWLNGKEYKCKVSNKGLPSSIEKTISKAKGQPREPQVYTLPPSQEEMTKNQVSLTCLVKGFYPSDIAVAWESNGQPENNYKTTPPVLDSDGSFFLYSRLTVDKSRWQEGNVFSCSVMHEALHAHYTQKSLSLSLGK light: SYVLTQPPSVSVAPGQTARITCGGNNIGSKSVHWYQQKPGQAPVLVVYDDSDRPSGIPERFSGSNSGNTATLTISRVEAGDEADYYCQVWDSSSDHVVFGGGTKLTVLGQPKAAPSVTLFPPSSEELQANKATLVCLISDFYPGAVTVAWKADSSPVKAGVETTTPSKQSNNKYAASSYLSLTPEQWKSHRSYSCQVTHEGSTVEKTVAPTECS | no binding | no binding
Abs-250 (other, the paragraph that names the antibody is followed; also called CD80 IgV mutant M47A/I69W/A71E-sugemalimab fusion) heavy: VIHVTKEVKEVATLSCGHNVSVEELAQTRIYWQKEKKMVLTMMSGDANIWPEYKNRTIFDITNNLSIVWLELRPSDEGTYECVVLKYEKDAFKREHLAEVTLSVKADGGGGSGGGGSGGGGSGGGGSGEVQLLESGGGLVQPGGSLRLSCAASGFTFSSYAMSWVRQAPGKGLEWVSGISGSGGFTYYADSVKGRFTISRDNSKNTLYLQMNSLRAEDTAVYYCAKPPRGYNYGPFDYWGQGTLVTVSSASTKGPSVFPLAPCSRSTSESTAALGCLVKDYFPEPVTVSWNSGALTSGVHTFPAVLQSSGLYSLSSVVTVPSSSLGTKTYTCNVDHKPSNTKVDKRVESKYGPPCPPCPAPEFLGGPSVFLFPPKPKDTLMISRTPEVTCVVVDVSQEDPEVQFNWYVDGVEVHNAKTKPREEQFNSTYRVVSVLAVLHQDWLNGKEYKCKVSNKGLPSSIEKTISKAKGQPREPQVYTLPPSQEEMTKNQVSLTCLVKGFYPSDIAVAWESNGQPENNYKTTPPVLDSDGSFFLYSRLTVDKSRWQEGNVFSCSVMHEALHAHYTQKSLSLSLGK light: SYVLTQPPSVSVAPGQTARITCGGNNIGSKSVHWYQQKPGQAPVLVVYDDSDRPSGIPERFSGSNSGNTATLTISRVEAGDEADYYCQVWDSSSDHVVFGGGTKLTVLGQPKAAPSVTLFPPSSEELQANKATLVCLISDFYPGAVTVAWKADSSPVKAGVETTTPSKQSNNKYAASSYLSLTPEQWKSHRSYSCQVTHEGSTVEKTVAPTECS | no binding | no binding
Abs-249 (other, the paragraph that names the antibody is followed; also called CD80 IgV mutant M47A/I69Y/A71E-sugemalimab fusion) heavy: VIHVTKEVKEVATLSCGHNVSVEELAQTRIYWQKEKKMVLTMMSGDANIWPEYKNRTIFDITNNLSIVYLELRPSDEGTYECVVLKYEKDAFKREHLAEVTLSVKADGGGGSGGGGSGGGGSGGGGSGEVQLLESGGGLVQPGGSLRLSCAASGFTFSSYAMSWVRQAPGKGLEWVSGISGSGGFTYYADSVKGRFTISRDNSKNTLYLQMNSLRAEDTAVYYCAKPPRGYNYGPFDYWGQGTLVTVSSASTKGPSVFPLAPCSRSTSESTAALGCLVKDYFPEPVTVSWNSGALTSGVHTFPAVLQSSGLYSLSSVVTVPSSSLGTKTYTCNVDHKPSNTKVDKRVESKYGPPCPPCPAPEFLGGPSVFLFPPKPKDTLMISRTPEVTCVVVDVSQEDPEVQFNWYVDGVEVHNAKTKPREEQFNSTYRVVSVLAVLHQDWLNGKEYKCKVSNKGLPSSIEKTISKAKGQPREPQVYTLPPSQEEMTKNQVSLTCLVKGFYPSDIAVAWESNGQPENNYKTTPPVLDSDGSFFLYSRLTVDKSRWQEGNVFSCSVMHEALHAHYTQKSLSLSLGK light: SYVLTQPPSVSVAPGQTARITCGGNNIGSKSVHWYQQKPGQAPVLVVYDDSDRPSGIPERFSGSNSGNTATLTISRVEAGDEADYYCQVWDSSSDHVVFGGGTKLTVLGQPKAAPSVTLFPPSSEELQANKATLVCLISDFYPGAVTVAWKADSSPVKAGVETTTPSKQSNNKYAASSYLSLTPEQWKSHRSYSCQVTHEGSTVEKTVAPTECS | no binding | no binding
